Holding throughout (experiment): Algicidal activity by cell count after 24 hr (Lugol staining)
What all share (assay type): cell-based

The subject of one test is Alexandrium sp. Particulars: for Algicidal activity (degree of inhibition): 50 μl of protein (100 μg/ml), after 24 hr. As to the method: (§1) Organisms used as host for algicidal bacteria screen are Cochlodinium polykrikoides, Thalassiosira sp., Heterosigma akashiwo, Skeletonema costatum, Alexandrium sp., Gymnodium sp., Chaetoceros cuvisetus. Each algae cell was grown to log phase in F/2 broth (0.075 g NaNO3, 0.005 g NaH2PO4?H2O, 0.030 g Na2SiO3?9H2O, 1 ml F/2 trace metal solution, 1 ml F/2 vitamin solution and 1,000 ml aged seawater) [Stein, Handbook of phycological methods, Cambridge Univ. Press, 1973].
(§2) The cultured red tide organisms were diluted in F/2 broth to a final density of 0.05 (excitation wavelength=434 nm, emission wavelength=670 nm)on the fluorescent intensity using fluoro-spectrophotometer (Hitachi, Japan), and then 2.7 ml aliquots were dispensed into several test tubes (110 mm×10 mm) to prepare for the MPN (most probable number) method.
(§3) To measure algicidal activity of 10476—7 protein (SEQ ID NO:27), 50 μl of said protein (100 μg/ml) was added to the culture solutions of Cochlodinium polykrikoides, Thalassiosira sp., Heterosigma akashiwo, Skeletonema costatum, Alexandrium sp., Chaetoceros cuvisetus and Gymnodniium sp. which were prepared in Example 2. After 24 hr, said culture solutions were stained with 1% Lugol's iodine solution, and then the cell number was counted. Experimental groups with protease (experimental group 1 and 2) were compared with control group without protease in cell number and the degree of inhibition.
(§4) To check algicidal activity of proteins isolated Flavobacterium johnsoniae UW101 (ZP—01247095, SEQ ID NO: 4), Croceibacter atlanticus HTCC2559 (ZP—00951344, SEQ ID NO: 5), Leeuwenhoekiella blandensis MED217 (ZP—01059780, SEQ ID NO: 6) and Kordia algicida KAOT1—11562 (SEQ ID NO: 7), 50 μl of said protein (100 μg/ml) was added to the culture solutions of Cochlodinium polykrikoides, Thalassiosira sp., Heterosigma akashiwo, Skeletonema costatum, Alexandrium sp., Chaetoceros cuvisetus, and Gymnodium sp., which were prepared in Example 2. After 24 hr, said culture solutions were stained with 1% Lugol's iodine solution, and then the cell number was counted.
(§5) Experimental groups with protease (experimental group 1 and 2) were compared with control group without protease in cell number and the degree of inhibition.

The next test concerns Chaetoceros cuvisetus. Particulars: for Algicidal activity (degree of inhibition): 50 μl of protein (100 μg/ml), after 24 hr. The procedure:
as §1, §2, §3, §4, §5

In test [1] the test system is Cochlodinium polykrikoides. The following applies: Cochlodinium polykrikoides; for Algicidal activity (degree of inhibition): 50 μl of protein (100 μg/ml), after 24 hr. The procedure:
as §1, §2, §3, §4, §5

For a further test, the system named is Gymnodinium sp. Particulars: for Algicidal activity (degree of inhibition): 50 μl of protein (100 μg/ml), after 24 hr. As to the method: as §1, §2, §3, §4, §5
A further test deals with Heterosigma akashiwo. The following applies: for Algicidal activity (degree of inhibition): 50 μl of protein (100 μg/ml), after 24 hr. The procedure:
as §1, §2, §3, §4, §5

Another test concerns Thalassiosira sp. Particulars: for Algicidal activity (degree of inhibition): 50 μl of protein (100 μg/ml), after 24 hr. The procedure: as §1, §2, §3, §4, §5
A further test concerns Skeletonema costatum. The following applies: for Algicidal activity (degree of inhibition): 50 μl of protein (100 μg/ml), after 24 hr. As to the method:
as §1, §2, §3, §4, §5

B1: CRO: protein of Croceibacter atlanticus HTCC2559 with homology to KAOT1—10476 (protein, listed as Croceibacter atlanticus)
chain: MVFVSCEKDNDTNNAEVADTNEVTTGSLETLGVNTDLTPTNLDQATLDLIASKHLSPIGAQEELRYLPDGTSEKAIRIEGDIVMTKAELEELEFNGYSNENAQYSTNALVSPQTITIIGYTGGSQALTSSEQTALQWAVANYNRLNLNINFSLTFGTNYQNKDMVVYNNTVNNPSGAGGSAGFPSGGNPHKFVQIYGLSNYNTNVIEHVITHEIGHSVGFRHTDYFSRQSCGQNTNEGTAGVGANHIPGTPTGYDSTSIMLACFSSGEDGEFNSNDITALNYLY
modifications: Croceibacter atlanticus HTCC2559 (ZP_00951344)
As for B1, the “Algicidal activity (degree of inhibition)” value (in the test on Alexandrium sp.; in the test on Chaetoceros cuvisetus; in test [1]; in the test with Gymnodinium sp.; in the test on Heterosigma akashiwo; in the test with Thalassiosira sp.) was “++++ (++++ means >75% the degree of inhibition)” each time.

B2: MED: protein of Leeuwenhoekiella blandensis MED217 with homology to KAOT1—10476 (protein, listed as Leeuwenhoekiella blandensis)
chain: MTSCSEDAEQTTLPEAQPTSNLEVSSEIIQQVEDLGMNANYVRWDDFYFPDGSSEPRLFLEEDVVVTPEQLSSMSANVEESKSGKGDSKQYRTSALVSQGRTISIIGYTGGSQALSQKERTALQWAVANYNRLSGVSISFNLTFGTDYQNKDMVVYNNTVNNPSGAGGSAGFPSNGLPYKFVQIYGLANYDTNVVEHVMTHEIGHSVGFRHTDWFSRQSCGQNVYEGGDANHVSGTPTGYDSTSIMLACFSANEDGEFNANDITALNNMY
modifications: Leeuwenhoekiella blandensis MED217 (ZP_01059780)
With B2, the “Algicidal activity (degree of inhibition)” value (with Alexandrium sp.; in the test with Chaetoceros cuvisetus; in test [1]; with Gymnodinium sp.; in the test with Heterosigma akashiwo; in the test on Skeletonema costatum) was “++++ (++++ means >75% the degree of inhibition)” each time. Moreover, the “Algicidal activity (degree of inhibition)” value in the test with Thalassiosira sp. is reported as “++++ (++++ means >75% the degree of inhibition)”.

B3: KAOT1_10476: metallo protease of Kordia algicida OT1: signal peptide (1-27), processing peptide (28-98), mature region (99-278) (protein, listed as Kordia algicida)
chain: MKKIKNLTFALALGLGITMVSCSKDTAVVDEEQDTAIGIPQDVLQKAQSLHFNTFDMQEASFEKPNGKIEEGYMMEGDIFFTRDQLMNMELGGDITSKQYRTNNLVSPGVITIIGYTGNNSNGLTTKMQTGLRWAVDNYNALNLSISFQLTFGTDYQNKDMVVYQVQGGAGGSAGFPSGGNPYKWVKINSGMAPYSNNVHEHVIGHEIGHSIGFRHSDYFSRQSCGQNSNEGSAGVGAIHIPGTPTGWDPTSLMNACFSSSEDGEFNGNDITALNFLY
modifications: KAOT1_10476 of Kordia algicida OT-1
As to B3, the “Algicidal activity (in words)” value in the test on Alexandrium sp. is recorded as “showed algicidal activity”; in the test with Chaetoceros cuvisetus, “showed algicidal activity”; in test [1], “cell growth was inhibited effectively”; with Gymnodinium sp., “showed algicidal activity”; in the test on Heterosigma akashiwo, “showed algicidal activity”; with Skeletonema costatum, “showed algicidal activity”. The “Algicidal activity (in words)” value with Thalassiosira sp. is listed as “showed algicidal activity”. Also, the “Algicidal activity (degree of inhibition)” value is “++++ (++++ means >75% the degree of inhibition)” with Alexandrium sp.; “++++ (++++ means >75% the degree of inhibition)” in the test with Chaetoceros cuvisetus; “++++ (++++ means >75% the degree of inhibition)” in test [1]; “++++ (++++ means >75% the degree of inhibition)” in the test on Gymnodinium sp.; “++++ (++++ means >75% the degree of inhibition)” in the test with Heterosigma akashiwo; “+ (+ means <25%)” in the test with Skeletonema costatum. In addition, the “Algicidal activity (degree of inhibition)” value in the test with Thalassiosira sp. is “++++ (++++ means >75% the degree of inhibition)”.

B4: FJ: protein of Flavobacterium johnsoniae UW101 with homology to KAOT1—10476 (protein, listed as Flavobacterium johnsoniae)
chain: MKKIKSILILSFTALVLLSCNKEDETVSSGQESLKVTPEVLEKLKSLSLNTSDVQVIQNTSLEGAVEDAFLVEGDIIITQAQLNKMDLHGGITTEQYRTTNLVSAPRTIKVVGLSGTGTTALTTNMRNGLQAAINRYNNLGLSINFTLTFSSSTSGANIVVRRQTGSAGGVAGFPSGGNPYNSVTLYSGLDSYSTNVNAHVAAHEIGHCIGLRHTDWFSRQSCGQNSNEGTAGVGAILIPGTPSGYDATSYMRACFGSNETGAFNANDITALNYLY
modifications: Flavobacterium johnsoniae UW101 (ZP_01247095)
On to B4, for which the “Algicidal activity (degree of inhibition)” value with Alexandrium sp. is listed as “++++ (++++ means >75% the degree of inhibition)”; with Chaetoceros cuvisetus, “++++ (++++ means >75% the degree of inhibition)”; in test [1], “++++ (++++ means >75% the degree of inhibition)”; with Gymnodinium sp. it was “++++ (++++ means >75% the degree of inhibition)”; in the test on Heterosigma akashiwo, “++++ (++++ means >75% the degree of inhibition)”; with Skeletonema costatum it was “++ (++ means 25-50%)”. Further, the “Algicidal activity (degree of inhibition)” value in the test on Thalassiosira sp. was “++++ (++++ means >75% the degree of inhibition)”.

B5: KAOT1_11562: protein of Kordia algicida with high homology to KAOT1—10476 (protein, listed as Kordia algicida)
chain: MKRNFKIQMLYVLLTMLLLAGCQNDTEEELVEEATTAVERVDVKWLAPDDHPVVQLLYSRGYERGTIYETDEHFLAPPDLLYSKDINDYDLSDNGSNAEQAYNTGKLVSLNRMRINVFLDNSIGTDLQTQSVNAMNELNGINNCALFFVRVFNANQAQITIRSDFGAESNNVLGRAGFPSNGRPFDTVTLNVDRLDDFGADIRRNTIIHELGHCVGLRHTDWQANRERSAVNIPGTSANDTGSIMWHTINGGTPFTNGDLTAFRALFPRALRIDVVNEIDDYDYSGEIYVLDNVFVDVFTDGSYSTQTTLNRNVNVSYRINVQEYNHTSGTYYYSRNRTLTAGNNRYYIDDEEEECSPYQGETCTRQDLEIRLATSIL
modifications: Kordia algicida KAOT1_11562
Regarding B5, the “Algicidal activity (degree of inhibition)” value in the test with Alexandrium sp. is “++++ (++++ means >75% the degree of inhibition)”; with Chaetoceros cuvisetus it was “++++ (++++ means >75% the degree of inhibition)”; in test [1], “++++ (++++ means >75% the degree of inhibition)”; in the test with Gymnodinium sp., “++++ (++++ means >75% the degree of inhibition)”; in the test on Heterosigma akashiwo, “++++ (++++ means >75% the degree of inhibition)”; in the test with Skeletonema costatum it was “+ (+ means <25%)”. Besides, in the test with Thalassiosira sp., the “Algicidal activity (degree of inhibition)” value is given as “++++ (++++ means >75% the degree of inhibition)”.

The record behind these values is patent US20100272689A1, “Protease Having Algicidal Activity, Gene Encoding the Same and Algicidal Formulation Comprising the Same” (KOREA OCEAN RESEARCH & DEVELOPMENT INSTITUTE, priority 2007, published 2010).
